# Measured values as given in article PMC10140304, “Flagellar brake protein YcgR interacts with motor proteins MotA and FliG to regulate the flagellar rotation speed and direction” (Frontiers in Microbiology, 2023).
# T1: FliG (E. coli MG1655, UniProt P0ABZ1 1-331)
# T1 construct: Flagellar motor switch (rotor) protein FliG, E. coli MG1655; also called individual FliG; rotor protein FliG; source: E. coli BL21 (DE3), purified following Hou et al., 2020
# T1 sequence (looked up): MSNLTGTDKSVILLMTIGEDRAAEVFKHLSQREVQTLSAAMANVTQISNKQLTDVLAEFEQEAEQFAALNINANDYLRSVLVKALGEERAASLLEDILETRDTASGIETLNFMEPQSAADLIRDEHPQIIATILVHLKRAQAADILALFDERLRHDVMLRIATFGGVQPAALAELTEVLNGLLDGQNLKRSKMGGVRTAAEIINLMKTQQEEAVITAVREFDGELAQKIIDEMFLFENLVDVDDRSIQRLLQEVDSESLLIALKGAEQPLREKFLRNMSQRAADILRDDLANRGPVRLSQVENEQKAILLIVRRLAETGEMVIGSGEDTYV
# T2: mYPet-YcgR-mCyPet (YcgR-biosensor), wild-type E. coli YcgR (E. coli MG1655), P76010
# T2 chain: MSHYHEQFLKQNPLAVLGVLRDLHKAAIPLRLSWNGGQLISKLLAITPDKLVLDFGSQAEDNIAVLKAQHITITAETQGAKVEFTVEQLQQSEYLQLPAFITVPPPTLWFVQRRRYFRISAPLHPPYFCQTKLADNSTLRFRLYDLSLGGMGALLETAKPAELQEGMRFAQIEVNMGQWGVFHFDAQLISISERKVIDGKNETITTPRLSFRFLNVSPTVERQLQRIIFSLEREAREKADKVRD
# B1: mYPet-YcgR(Q38A/D54A/N62A)-mCyPet mutant biosensor (natural protein, E. coli MG1655, UniProt P76010 1-244, looked up)
# chain: MSHYHEQFLKQNPLAVLGVLRDLHKAAIPLRLSWNGGALISKLLAITPDKLVLAFGSQAEDAIAVLKAQHITITAETQGAKVEFTVEQLQQSEYLQLPAFITVPPPTLWFVQRRRYFRISAPLHPPYFCQTKLADNSTLRFRLYDLSLGGMGALLETAKPAELQEGMRFAQIEVNMGQWGVFHFDAQLISISERKVIDGKNETITTPRLSFRFLNVSPTVERQLQRIIFSLEREAREKADKVRD
# notes: Flagellar brake protein YcgR, E. coli MG1655, triple mutant Q38A/D54A/N62A, between YPet (A206K) and CyPet (A206K); Printed both as QDN/AAA and QND/AAA; also called QDN/AAA; QND/AAA biosensor; source: E. coli BL21 (DE3), purified following Hou et al., 2020; not shown: mYPet (YPet A206K), N-terminal, kept; mCyPet (CyPet A206K), C-terminal, kept
# B2: mYPet-YcgR(D54A)-mCyPet mutant biosensor (natural protein, E. coli MG1655, UniProt P76010 1-244, looked up)
# chain: MSHYHEQFLKQNPLAVLGVLRDLHKAAIPLRLSWNGGQLISKLLAITPDKLVLAFGSQAEDNIAVLKAQHITITAETQGAKVEFTVEQLQQSEYLQLPAFITVPPPTLWFVQRRRYFRISAPLHPPYFCQTKLADNSTLRFRLYDLSLGGMGALLETAKPAELQEGMRFAQIEVNMGQWGVFHFDAQLISISERKVIDGKNETITTPRLSFRFLNVSPTVERQLQRIIFSLEREAREKADKVRD
# notes: Flagellar brake protein YcgR, E. coli MG1655, mutant D54A, between YPet (A206K) and CyPet (A206K); also called YcgR biosensor mutant D54A; source: E. coli BL21 (DE3), purified following Hou et al., 2020; not shown: mYPet (YPet A206K), N-terminal, kept; mCyPet (CyPet A206K), C-terminal, kept
# Assays:
# FliG [1] = target: T1, FliG; test: FRET or BRET; in vitro, intramolecular FRET of 1.5 uM YcgR biosensor (mYPet-YcgR-mCyPet) titrated with 0-500 uM motor protein, without c-di-GMP; 25 C, SEC buffer (20 mM HEPES pH 7.5, 150 mM NaCl, 10% glycerol); FRET/CFP ratio fitted to a logistic equation; conditions: both partners purified
# FliG [2] = target: T1, FliG; test: FRET or BRET; in vitro, intramolecular FRET of 1.5 uM YcgR biosensor oversaturated with excess c-di-GMP (2 mM), titrated with gradient concentrations of motor protein; 25 C, SEC buffer; FRET/CFP ratio fitted to a logistic equation; conditions: both partners purified
# [3] = target: T2, mYPet-YcgR-mCyPet (YcgR-biosensor), …; test: FRET or BRET; in vitro, intramolecular FRET of 1.5 uM YcgR biosensor (mYPet-YcgR-mCyPet) titrated with 0-500 uM motor protein, without c-di-GMP; 25 C, SEC buffer (20 mM HEPES pH 7.5, 150 mM NaCl, 10% glycerol); FRET/CFP ratio fitted to a logistic equation; conditions: remark: other sources report otherwise
# [4] = target: T2, mYPet-YcgR-mCyPet (YcgR-biosensor), …; test: FRET or BRET; in vitro, intramolecular FRET of 1.5 uM YcgR biosensor oversaturated with excess c-di-GMP (2 mM), titrated with gradient concentrations of motor protein; 25 C, SEC buffer; FRET/CFP ratio fitted to a logistic equation; conditions: remark: other sources report otherwise
# [5] = target: B1; test: FRET or BRET; in vitro, intramolecular FRET of 1.5 uM YcgR biosensor (mYPet-YcgR-mCyPet) titrated with 0-500 uM motor protein, without c-di-GMP; 25 C, SEC buffer (20 mM HEPES pH 7.5, 150 mM NaCl, 10% glycerol); FRET/CFP ratio fitted to a logistic equation; conditions: both partners purified
# [6] = target: B2; test: as above; conditions: both partners purified
# [7] = target: B1; test: FRET or BRET; in vitro, intramolecular FRET of 1.5 uM YcgR biosensor oversaturated with excess c-di-GMP (2 mM), titrated with gradient concentrations of motor protein; 25 C, SEC buffer; FRET/CFP ratio fitted to a logistic equation; conditions: both partners purified
binder,measurement,setting,value
B1,Kd,FliG [1],139 ± 15.6 µM
same,Kd,FliG [2],235 ± 35.4 µM
"mYPet-YcgR-mCyPet (YcgR-biosensor), wild-type E. coli YcgR (natural protein, E. coli MG1655, UniProt P76010 1-244, looked up, Flagellar brake protein YcgR, E. coli MG1655, cloned between YPet (A206K) and CyPet (A206K) in an engineered pET15b; YFP and CFP report FRET within one chain; also called YcgR-FRET; FRET-based YcgR biosensor; source: E. coli BL21 (DE3), purified following Hou et al., 2020; not shown: mYPet (YPet A206K), N-terminal, kept; mCyPet (CyPet A206K), C-terminal, kept) MSHYHEQFLKQNPLAVLGVLRDLHKAAIPLRLSWNGGQLISKLLAITPDKLVLDFGSQAEDNIAVLKAQHITITAETQGAKVEFTVEQLQQSEYLQLPAFITVPPPTLWFVQRRRYFRISAPLHPPYFCQTKLADNSTLRFRLYDLSLGGMGALLETAKPAELQEGMRFAQIEVNMGQWGVFHFDAQLISISERKVIDGKNETITTPRLSFRFLNVSPTVERQLQRIIFSLEREAREKADKVRD",Kd,FliG [1],143 µM
same,Kd,FliG [2],107 µM
B2,Kd,FliG [1],141 ± 9.8 µM
same,Kd,FliG [2],213 µM
"MotAc, cytoplasmic domain of MotA (residues 70-170 of MotA) (domain or fragment, E. coli MG1655, UniProt P09348 70-170, looked up, Flagellar stator protein MotA, E. coli MG1655, cytoplasmic domain, residues 70-170; source: E. coli BL21 (DE3), purified following Hou et al., 2020) YTKAMYMDLLALLYRLMAKSRQMGMFSLERDIENPRESEIFASYPRILADSVMLDFIVDYLRLIISGHMNTFEIEALMDEEIETHESEAEVPANSLALVGD",Kd,[3],123 µM
same,Kd,[4],35.9 µM
same,Kd,[5],151 ± 10.2 µM
same,Kd,[6],114 ± 11.3 µM
same,Kd,[7],46.1 ± 2.2 µM
